Assay results taken from patent US20250236653A1 (ONKO INNATE, published 2025).
Positions count from the first letter of the chain named. Several values for one entry are separate records, joined by “and”; a condition that tells them apart may be missing. Equal entries are not always repeated. Each block holds one binder with its values, some of them ahead of it.

How the values were obtained:
[1] = target: T1, human OX40 (human, UniProt P43489 29-277); experiment: cell-based or functional assay
T1 sequence (looked up): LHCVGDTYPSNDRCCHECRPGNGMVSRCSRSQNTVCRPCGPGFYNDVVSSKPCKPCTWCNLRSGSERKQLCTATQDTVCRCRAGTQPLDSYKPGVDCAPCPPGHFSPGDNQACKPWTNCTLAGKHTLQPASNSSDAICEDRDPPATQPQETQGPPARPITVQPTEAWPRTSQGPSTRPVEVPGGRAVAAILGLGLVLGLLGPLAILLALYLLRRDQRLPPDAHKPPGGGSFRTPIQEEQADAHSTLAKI

[2] = target: T1, human OX40; experiment: flow cytometry on hOX40-Jurkat-NF-κB cells
Experimental: Stained hOX40-Jurkat-NF-κB and cOX40-Jurkat-NF-κB cells were analyzed by flow cytometry using a CytoFLEX (Beckman Coulter), the results of which are depicted in FIGS. 78 and 79, respectively, and summarized in FIG. 80.
Binding of each of the sequence optimized IL-12 ABD fusion proteins to hOX40-Jurkat-NF-κB cells was performed as described in Example 16, the results of which are depicted in FIG. 87 and summarized in FIG. 88.

[3] = target: human IL-12 receptor (human, UniProt P42701 24-662; Q99665 24-862); experiment: cell-based or functional assay
human IL-12 receptor, sequence (Q99665 24-862 limits assumed, chain 2 of 2, other chains not shown): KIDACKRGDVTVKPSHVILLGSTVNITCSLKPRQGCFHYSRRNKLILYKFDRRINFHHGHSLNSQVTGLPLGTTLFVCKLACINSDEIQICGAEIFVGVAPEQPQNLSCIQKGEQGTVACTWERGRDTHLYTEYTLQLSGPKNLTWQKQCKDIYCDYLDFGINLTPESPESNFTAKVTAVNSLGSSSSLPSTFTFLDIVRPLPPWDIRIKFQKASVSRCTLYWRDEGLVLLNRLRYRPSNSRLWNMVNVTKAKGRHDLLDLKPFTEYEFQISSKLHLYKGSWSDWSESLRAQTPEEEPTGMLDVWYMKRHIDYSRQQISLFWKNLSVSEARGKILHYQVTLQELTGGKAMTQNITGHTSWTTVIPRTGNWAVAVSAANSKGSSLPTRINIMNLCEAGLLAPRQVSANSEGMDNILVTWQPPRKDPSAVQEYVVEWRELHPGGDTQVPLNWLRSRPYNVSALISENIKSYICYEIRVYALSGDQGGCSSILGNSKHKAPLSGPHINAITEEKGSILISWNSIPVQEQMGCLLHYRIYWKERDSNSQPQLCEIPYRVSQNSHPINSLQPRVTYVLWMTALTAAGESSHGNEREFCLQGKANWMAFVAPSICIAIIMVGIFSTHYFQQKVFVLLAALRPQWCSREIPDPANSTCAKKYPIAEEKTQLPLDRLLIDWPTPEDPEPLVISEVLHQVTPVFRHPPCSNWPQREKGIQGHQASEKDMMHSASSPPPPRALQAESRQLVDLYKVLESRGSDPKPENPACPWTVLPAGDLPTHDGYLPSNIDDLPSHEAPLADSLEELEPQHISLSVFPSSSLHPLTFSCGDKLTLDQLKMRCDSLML

IFNγ release by conventional CD4+ T cells (AlphaLISA), EC50, two PBMC donors [1]: 0.0277 nM and 0.0195 nM | IFNγ release by induced Treg cells (AlphaLISA), EC50, two PBMC donors [1]: 0.0057 nM and 0.0138 nM
B1: mono-mut23-20E5_V4 (Fc fusion)
chain: IWELKKDVYVVELDWYPDAPGEMVVLTCDTPEEDGITWTLDQSSEVLGSGKTLTIQVKEFGDAGQYTCHKGGEVLSHSLLLLHKKEDGIWSTDILKDQKEPKNKTFLRCEAKNYSGRFTCWWLTTISTDLTFSVKSSRGSSDPQGVTCGAATLSAERVRGDNKEYEYSVECQEDSACPAAEESLPIEVMVDAVHKLKYENYTSSFFIRDIIKPDPPKNLQLKPLKNSRQVEVSWEYPDTWSTPHSYFSLTFSVQVQGKSKREKKDRVFTDKTSATVICRKNASISVRAQDRYYSSSWSEWASVPCSGGGGSGGGGSGGGGSGGGGSGGGGSRNLPVATPDPGMFPCLHHSQNLLRAVSNMLQKARQTLEFSPCTSEEIDHEDITKDKTSTVEACLPLELTKNESCLNSRETSFITNGSCLASRKTSFMMALCLSSIYEDLKMYQVEFKTMNAKLLMDPKRQIFLDQNMLAVIDELMQALNFNSETVPQKSSLEEPDFYKTAIKLCILLHAFRIRAVTIDRVMSYLNASGGGGSGGGGSEPKSSDKTHTCPPCPAPEFEGGPSVFLFPPKPKDTLMISRTPEVTCVVVDVSHEDPEVKFNWYVDGVEVHNAKTKPREEQYNSTYRVVSVLTVLHQDWLNGKEYKCKVSNKALPASIEKTISKAKGQPREPQVCTLPPSRDELTKNQVSLSCAVKGFYPSDIAVEWESNGQPENNYKTTPPVLDSDGSFFLVSKLTVDKSRWQQGNVFSCSVMHEALHNHYTQKSLSLSPG
heavy: QVQLVQSGAEVKKPGASVKVSCKASGYTFTSYVMHWVRQAPGQRLEWIGYINPYNEGTKYNEKFKGRATLTSDKSASTAYMELSSLRSEDTAVYYCANYYGSSLSMDYWGQGTLVTVSSASTKGPSVFPLAPSSKSTSGGTAALGCLVKDYFPEPVTVSWNSGALTSGVHTFPAVLQSSGLYSLSSVVTVPSSSLGTQTYICNVNHKPSNTKVDKKVEPKSCDKTHTCPPCPAPEFEGGPSVFLFPPKPKDTLMISRTPEVTCVVVDVSHEDPEVKFNWYVDGVEVHNAKTKPREEQYNSTYRVVSVLTVLHQDWLNGKEYKCKVSNKALPASIEKTISKAKGQPREPQVYTLPPCRDELTKNQVSLWCLVKGFYPSDIAVEWESNGQPENNYKTTPPVLDSDGSFFLYSKLTVDKSRWQQGNVFSCSVMHEALHNHYTQKSLSLSPG
light: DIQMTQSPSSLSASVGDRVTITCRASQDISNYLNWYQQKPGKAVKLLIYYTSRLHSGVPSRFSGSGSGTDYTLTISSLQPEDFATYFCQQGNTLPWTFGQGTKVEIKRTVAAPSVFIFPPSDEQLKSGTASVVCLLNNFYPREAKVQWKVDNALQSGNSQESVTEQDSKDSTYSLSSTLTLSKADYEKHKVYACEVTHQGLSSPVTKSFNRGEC

binding result [2]: binds
B2: mono-mut23-20E5_V5 (Fc fusion)
chain: B1 chain
heavy: B1 heavy with E56A
light: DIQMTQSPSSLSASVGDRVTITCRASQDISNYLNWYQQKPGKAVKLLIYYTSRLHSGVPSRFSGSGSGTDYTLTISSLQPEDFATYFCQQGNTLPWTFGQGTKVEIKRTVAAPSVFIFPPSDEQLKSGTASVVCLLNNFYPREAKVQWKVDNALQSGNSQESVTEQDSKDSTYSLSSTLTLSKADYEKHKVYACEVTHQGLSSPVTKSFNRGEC

EC50 [2]: 113 nM
B3: mono-mut23-12H3_V5 (Fc fusion)
chain: B1 chain
heavy: QVQLVQSGAEVKKPGSSVKVSCKASGYTFKDYTMHWVRQAPGQGLEWIGGIYPNNAGSTYNQNFKDRVTLTADKSTSTAYMELSSLRSEDTAVYYCARMGYHGPHLDFDVWGQGTTVTVSSASTKGPSVFPLAPSSKSTSGGTAALGCLVKDYFPEPVTVSWNSGALTSGVHTFPAVLQSSGLYSLSSVVTVPSSSLGTQTYICNVNHKPSNTKVDKKVEPKSCDKTHTCPPCPAPEFEGGPSVFLFPPKPKDTLMISRTPEVTCVVVDVSHEDPEVKFNWYVDGVEVHNAKTKPREEQYNSTYRVVSVLTVLHQDWLNGKEYKCKVSNKALPASIEKTISKAKGQPREPQVYTLPPCRDELTKNQVSLWCLVKGFYPSDIAVEWESNGQPENNYKTTPPVLDSDGSFFLYSKLTVDKSRWQQGNVFSCSVMHEALHNHYTQKSLSLSPG
light: DIQMTQSPSSLSASVGDRVTITCKASQDVGAAVAWYQQKPGKAPKLLIYWASTRHTGVPSRFSGSGSGTDFTLTISSLQPEDFATYYCQQYINYPLTFGGGTKVEIKRTVAAPSVFIFPPSDEQLKSGTASVVCLLNNFYPREAKVQWKVDNALQSGNSQESVTEQDSKDSTYSLSSTLTLSKADYEKHKVYACEVTHQGLSSPVTKSFNRGEC

EC50 [2]: 645 nM
B4: mono-mut23-12H3_V6 (Fc fusion)
chain: B1 chain
heavy: B3 heavy with A56G, M99L
light: B3 light

SEAP of CCR8-HEK-Blue IL-12 reporter cells (OD 650 nm), EC50 [3]: 12.5 nM
B5: IL-12 Fc mut9 (Fc fusion)
chain: RNLPVATPDPGMFPCLHHSQNLLRAVSNMLQKARQTLEFPPCTSEEIDHEDITKDKTSTVEACLPLELTKNESCLNSRETSFITNGSCLASRKTSFMMALCLSSIYEDLKMYQVEFKTMNAKLLMDPKRQIFLDQNMLAVIDELMQALNFNSETVPQKSSLEEPDFYATKIKLCILLHAFRIRAVTIDRVMSYLNAS

SEAP of CCR8-HEK-Blue IL-12 reporter cells (OD 650 nm), EC50 [3]: 0.17 nM
B6: commercially available recombinant IL-12 (rIL-12, Miltenyi) (ligand)
chain 1: B5 chain with P40Y, A168K
chain 2: IWELKKDVYVVELDWYPDAPGEMVVLTCDTPEEDGITWTLDQSSEVLGSGKTLTIQVKEFGDAGQYTCHKGGEVLSHSLLLLHKKEDGIWSTDILKDQKEPKNKTFLRCEAKNYSGRFTCWWLTTISTDLTFSVKSSRGSSDPQGVTCGAATLSAERVRGDNKEYEYSVECQEDSACPAAEESLPIEVMVDAVHKLKYENYTSSFFIRDIIKPDPPKNLQLKPLKNSRQVEVSWEYPDTWSTPHSYFSLTFCVQVQGKSKREKKDRVFTDKTSATVICRKNASISVRAQDRYYSSSWSEWASVPCS

IFNγ in the supernatant of activated/expanded human T cells (AlphaLISA), EC50 [3]: 0.0193 nM
B7: commercially available recombinant mouse IL-12 (rmIL-12, BioLegend) (ligand)
chain 1: RVIPVSGPARCLSQSRNLLKTTDDMVKTAREKLKHYSCTAEDIDHEDITRDQTSTLKTCLPLELHKNESCLATRETSSTTRGSCLPPQKTSLMMTLCLGSIYEDLKMYQTEFQAINAALQNHNHQQIILDKGMLVAIDELMQSLNHNGETLRQKPPVGEADPYRVKMKLCILLHAFSTRVVTINRVMGYLSSA
chain 2: MWELEKDVYVVEVDWTPDAPGETVNLTCDTPEEDDITWTSDQRHGVIGSGKTLTITVKEFLDAGQYTCHKGGETLSHSHLLLHKKENGIWSTEILKNFKNKTFLKCEAPNYSGRFTCSWLVQRNMDLKFNIKSSSSSPDSRAVTCGMASLSAEKVTLDQRDYEKYSVSCQEDVTCPTAEETLPIELALEARQQNKYENYSTSFFIRDIIKPDPPKNLQMKPLKNSQVEVSWEYPDSWSTPHSYFSLKFFVRIQRKKEKMKETEEGCNQKGAFLVEKTSTEVQCKGGNVCVQAQDRYYNSSCSKWACVPCRVRS
